How the values were obtained:
[1] = target: SEMG2(442-453) fragment (human); experiment: ELISA, immobilized antigen SEMG2 (442-453)
[2] = target: human SEMG2 full-length protein (human) (UniProt Q02383); experiment: ELISA, immobilized antigen SEMG2 (1-582)
[3] = target: SEMG2(497-509) polypeptide … (human); experiment: ELISA, immobilized peptide …
[4] = target: SEMG2(497-509) polypeptide … (human); experiment: ELISA, immobilized antigen SEMG2 (497-509)
[5] = target: SEMG2(563-574) fragment (human); experiment: ELISA, immobilized antigen SEMG2 (563-574)
[6] = target: SEMG2(354-403) fragment (human); experiment: ELISA, immobilized antigen SEMG2 (354-403)
Chain of SEMG2(354-403) fragment (human) (peptide, as listed by the source): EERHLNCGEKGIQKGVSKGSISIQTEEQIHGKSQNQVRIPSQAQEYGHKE

[7] = target: human SEMG2 full-length protein (human) (UniProt Q02383); experiment: ELISA, plate coated with SEMG2 protein; fit value printed for the flat control curve (see non_binding); the EC50 table prints no unit, the axis is log (antibody concentration, nM)

Chain of human SEMG2 full-length protein (human) (Q02383 24-582 limits assumed): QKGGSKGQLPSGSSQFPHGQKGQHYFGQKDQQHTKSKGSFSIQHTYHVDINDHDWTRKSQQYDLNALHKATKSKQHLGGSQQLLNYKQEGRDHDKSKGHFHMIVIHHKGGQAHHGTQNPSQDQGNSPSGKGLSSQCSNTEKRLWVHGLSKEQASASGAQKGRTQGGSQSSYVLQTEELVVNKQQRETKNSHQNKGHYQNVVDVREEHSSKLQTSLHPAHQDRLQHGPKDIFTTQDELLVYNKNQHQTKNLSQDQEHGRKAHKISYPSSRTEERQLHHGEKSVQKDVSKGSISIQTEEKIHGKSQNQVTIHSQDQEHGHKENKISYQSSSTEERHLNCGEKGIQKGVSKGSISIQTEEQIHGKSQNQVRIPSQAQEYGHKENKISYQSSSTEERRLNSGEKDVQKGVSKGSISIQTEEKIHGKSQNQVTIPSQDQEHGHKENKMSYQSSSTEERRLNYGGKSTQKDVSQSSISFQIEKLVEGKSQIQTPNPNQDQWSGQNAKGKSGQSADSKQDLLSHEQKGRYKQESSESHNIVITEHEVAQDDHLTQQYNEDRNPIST

Row | A450 absorbance [1] | A450 absorbance [2] | OD450 absorbance [3] | A450 absorbance [4] | A450 absorbance [5] | A450 absorbance [6] | EC50 [7] | Substance
1 | 0.007 | 1.16 | 0.005 | 0.002 | 0.011 | 1.14 |  | HPA042767 (rabbit polyclonal antibody against SEMG2(354-403), Sigma Aldrich)
2 | 0.002 | 1.17 | 0.005 | 0.009 | 1.16 | 0.009 |  | HPA042835 (rabbit polyclonal antibody against SEMG2(563-574), Sigma Aldrich)
3 |  |  |  |  |  |  | 0.0885 nM | mIgG1 (antibody)

From US20230080534A1, “SEMG2 ANTIBODY AND USE THEREOF” (SHANGHAI BIOTROY BIOTECHNIQUE CO., LTD., priority 2020, published 2023)
